Test [1] has as its target Rho13 (Rhodonellum psychrophilum). The experiment in a line: SAXS; nominal 0.5 mg/mL enzyme (Ika2 0.51, Rho13 0.46, I3C6 0.46 mg/mL by Abs280), 25 °C, 1800 s; indirect Fourier transformation and fits to AlphaFold models; self-association.
The target is the same in test [2]. The experiment in a line: SAXS; nominal 1 mg/mL enzyme (Ika2 1.00, Rho13 0.94, I3C6 0.87 mg/mL by Abs280), 25 °C, 1800 s; indirect Fourier transformation and fits to AlphaFold models; self-association.
Test [3] shares this target. The experiment in a line: SEC; Superdex-200 Increase, 0.5 mL/min, Ni-NTA eluates after PD-10 desalting; 100 mM HEPES, 150 mM NaCl, 2 mM CaCl2 pH 6.5 or 50 mM MOPS, 50 mM NaCl, 2 mM CaCl2 pH 7.5; calibrated with lysozyme, carbonic anhydrase and BSA; self-association, monomer and dimer. On the technique in general: SEC sorts molecules by how far they enter the pores of the column.

In test [1], Rho13 (enzyme) displayed a dimer concentration in the SAXS model fit of 0.29 mg/mL, a monomer concentration in the SAXS model fit of 0.06 mg/mL, a n-mers (SAXS model fit) of 1.83 and a n-mers (indirect Fourier transformation) of 1.38. In test [2], this substance returned a dimer concentration in the SAXS model fit of 0.69 mg/mL, a monomer concentration in the SAXS model fit of 0.03 mg/mL, a n-mers (SAXS model fit) of 1.96 and a n-mers (indirect Fourier transformation) of 1.58. Also, in test [3], the share of the combined peak area, dimer peak was determined as 26% and the stoichiometry N is 2.

The term stoichiometry N denotes a count of units in the complex or per binding partner.
